Test results as given in patent US20240124585A1 (SUTRO BIOPHARMA, published 2024).
Numbering of substitutions follows the chain as printed. Read-outs that look alike come from different tables or passages of the source.

Assays:
[1] = target: T1, human CD3 on T-cell lines (CD3-expressing Jurkat cells; HUT78 cells) (human, UniProt P07766 23-207); assay: flow cytometry, HUT78 cells
T1 construct: On cells it stands in the CD3/TCR complex

[2] = target: T1, human CD3 on T-cell lines …; assay: flow cytometry, HUT78 cells; remark: listed apart in the source
[3] = target: T2, human CD3 epsilon (Acro Cat #CDE-H5223) (human, UniProt P07766 23-126); assay: SPR (Biacore), antibody captured, human CD3 epsilon analyte
T2 construct: Bought recombinant protein; also called rhCD3E
Procedure: (§1) Anti-Fab or anti-Fc polyclonal antibodies were immobilized onto a CM5 chip (GE Life Sciences) using amine coupling chemistry (from Amine Coupling Kit, GE Life Sciences). The immobilization steps were carried out at a flow rate of 25 μl/min in 1×HBS-EP+ buffer (GE Life Sciences; 10× Stock diluted before use). The sensor surfaces were activated for 7 min with a mixture of NHS (0.05 M) and EDC (0.2 M). The Anti-Fab or Anti-Fc antibodies were injected over all 4 flow cells at a concentration of 25 μg/mL in 10 mM sodium acetate, pH 4.5, for 7 min. Ethanolamine (1 M, pH 8.5) was injected for 7 min to block any remaining activated groups.
(§2) Off-rate and kinetic binding experiments were performed at 25° C. using 1×HBS-EP+ buffer. Test and control antibodies were injected over the anti-Fab or anti-Fc surface at concentrations of 5-10 μg/mL for 12 seconds at a flow rate of 10 μL/min on flow cells 2, 3 and 4, followed by a buffer wash for 30 seconds at the same flow rate. […] After capturing ligand (antibody) on the anti-Fc or anti-Fab surface, the analyte (human CD3 epsilon, Acro Cat #CDE-H5223) was bound for 180 seconds, followed by a 600 second dissociation phase at a flow rate of 50 μL/min. Between each ligand capture and analyte binding cycle, regeneration was carried out using two injections of 10 mM Glycine pH 2.0 for 30 seconds at 30 μL/min, followed by a 30 second buffer wash step.
(§3) The data was fit with the Biacore T200 Evaluation software, using a 1-1 Langmuir binding model. KD (affinity, nM) was determined as a ratio of the kinetic rate constants calculated from the fits of the association and dissociation phases.

[4] = target: T3, cynomolgus CD3 epsilon (cynomolgus monkey, UniProt Q95LI5 22-117, limits assumed); assay: SPR (Biacore), antibody captured, cynomolgus CD3 epsilon analyte
T3 construct: Recombinant protein; also called cyno CD3E
T3 sequence: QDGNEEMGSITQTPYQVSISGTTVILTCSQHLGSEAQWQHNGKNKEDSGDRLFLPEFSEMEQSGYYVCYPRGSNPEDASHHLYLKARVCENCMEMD

[5] = target: T3, cynomolgus CD3 epsilon; assay: as above; remark: listed apart in the source
[6] = target: T2, human CD3 epsilon (Acro Cat #CDE-H5223); assay: SPR (Biacore), antibody captured, human CD3 epsilon analyte; remark: listed apart in the source
Procedure: as §1, §2, §3

[7] = target: T1, human CD3 on T-cell lines …; assay: flow cytometry; signal on CD3+ Jurkat over CD3- Jurkat RT3-T3.5 cells
Procedure: A high-throughput primary screen was performed to rapidly assess cell binding of antibodies produced in small-scale (60 μL) cell-free reactions. In this screen, four components are combined in equal volumes to a final volume of 100 μL/well in a U-bottom 96-well plate (Greiner Cat #650201) or flat bottom 384 well plate (Greiner Cat #781201). […] Plates are then incubated on ice for one hour. Cells are pelleted by spinning at 1500×g for 5 minutes and resuspended in assay buffer. High-throughput flow cytometry is then performed on resuspended cells on a FACS instrument (BD Biosciences FACS Canto II or BD Biosciences LSR II) and data is analyzed with FlowJo software. Antibody binding is assessed by the proportional level of secondary antibody signal (presumably due to binding to our antibody of interest) on Jurkat CD3-positive cells compared to the signal on Jurkat RT3.T3.5 CD3-negative cells.

[8] = target: T2, human CD3 epsilon (Acro Cat #CDE-H5223); assay: SPR (Biacore), antibody captured, human CD3 epsilon analyte; remark: listed apart in the source
Procedure: as §1, §2, §3

[9] = target: T1, human CD3 on T-cell lines …; assay: flow cytometry, HUT78 cells; remark: listed apart in the source

T2 sequence (P07766 23-126 limits assumed): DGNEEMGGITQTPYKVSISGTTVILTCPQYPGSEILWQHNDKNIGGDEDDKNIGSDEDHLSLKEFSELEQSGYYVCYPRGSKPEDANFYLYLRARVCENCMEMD
T1 sequence (P07766 23-207 limits assumed): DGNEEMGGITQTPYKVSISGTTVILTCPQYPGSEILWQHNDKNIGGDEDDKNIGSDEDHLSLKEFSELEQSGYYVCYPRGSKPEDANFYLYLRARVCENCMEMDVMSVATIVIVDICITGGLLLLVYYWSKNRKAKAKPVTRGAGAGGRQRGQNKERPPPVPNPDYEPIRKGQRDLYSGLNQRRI

B1: 2037-B10-Lc6 (antibody)
heavy: not shown
light: DIQMTQSPSSLSASVGDRVTITCGSSTGAVTSGYYPNWLQQKPGQAPRGLIGGTKFLAPGVPSRFSGSLSGGKATLTISSLQPEDFATYYCALWYSNRWVFGGGTKVEIKRTVAAPSVFIFPPSDEQLKSGTASVVCLLNNFYPREAKVQWKVDNALQSGNSQESVTEQDSKDSTYSLSSTLTLSKADYEKHKVYACEVTHQGLSSPVTKSFNRGEC
notes: human IgG1, kappa; also called Kappa Lc6; Parent HC + Kappa Lc6
For B1, the “Bmax (MFI)” value [1] was 1320 MFI, the Kd [1] was 800 pM and the “HUT78 Bmax” value [2] was 1780. It also gave a Kd [2] of 1600 pM, a Kd [3] of 648 pM and a koff [3] of 0.000278 s⁻¹. The kon [3] was 430000 M⁻¹ s⁻¹, the Kd [4] was 413 pM and the koff [4] was 0.000311 s⁻¹. For the same binder, the kon [4] was 753000 M⁻¹ s⁻¹, the Kd [5] was 560 pM and the koff [5] was 0.000375 s⁻¹. It also gave a kon [5] of 670000 M⁻¹ s⁻¹, a Kd [6] of 1960 pM and a koff [6] of 0.000479 s⁻¹. The kon [6] was 244000 M⁻¹ s⁻¹.

B2: 2037-B10-Lc4 (antibody)
heavy: not shown
light: B1 light with L39Y, Q45K, R48K, G49L
notes: human IgG1, kappa; also called Kappa Lc4
With B2 the “Bmax (MFI)” value [1] was 130 MFI, the Kd [1] was 30400 pM and the binding result [3] was “no binding”. B2: no binding [4].

B3: 2037-B10-Lc3 (antibody)
heavy: not shown
light: B1 light with L69G, G72T, K73D, A74F
notes: human IgG1, kappa; also called Kappa Lc3
With B3 the “Bmax (MFI)” value [1] was 1040 MFI, the Kd [1] was 62600 pM and the Kd [3] was 7150 pM. For the same binder, the koff [3] was 0.000393 s⁻¹, the kon [3] was 55000 M⁻¹ s⁻¹ and the Kd [4] was 13600 pM. For the same binder, the koff [4] was 0.00069 s⁻¹ and the kon [4] was 50600 M⁻¹ s⁻¹.

B4: SMP1913-F03 (antibody, V domains shown)
VH: not shown
VL: QSAVTQPRSVSGSPGQSVTISCGSSTGAVTSGYYPNWYQQHPGKAPKGMIGGTKFLAPGVPDRFSGSLLGNTASLTISGLQAEDEADYYCALWYSNRWVFGGGTQLTVTG
notes: human IgG1, lambda; also called SP34-Hc + SP34-Lc2
With B4 the “FACS S/N (Jurkat/Jurkat RT3-T3.5 binding)” value [7] was 1.

B5: SMP1913-F08 (antibody, V domains shown)
VH: not shown
VL: B4 VL
notes: human IgG1, lambda; also called hSP34-Hc1 + SP34-Lc2
B5 was tested, and the “FACS S/N (Jurkat/Jurkat RT3-T3.5 binding)” value [7] was 0.9.

B6: SMP1913-F02 (antibody, V domains shown)
VH: not shown
VL: EIVVTQSPGTLSLSPGERATLSCGSSTGAVTSGYYPNWYQQKPGQAPRGLIGGTKFLAPGIPDRFSGSLLGTDATLTISRLEPEDFAVYYCALWYSNRWVFGQGTKLEIKR
notes: human IgG1, kappa; also called SP34-Hc + SP34-Lc1
B6 was tested, and the “FACS S/N (Jurkat/Jurkat RT3-T3.5 binding)” value [7] was 0.9.

B7: SMP1913-F07 (antibody, V domains shown)
VH: not shown
VL: B6 VL
notes: human IgG1, kappa; also called hSP34-Hc1 + SP34-Lc1
For B7, the “FACS S/N (Jurkat/Jurkat RT3-T3.5 binding)” value [7] was 0.8.

B8: 2037-B10-Lc8 (antibody)
heavy: not shown
light: DTQVTQSPSLSASVGDRVTITCGSSTGAVTSGYYPNWLQQKPGQAPRGLIGGTKFLAPGVPSRFSGSLSGGKATLTISSLQPEDFATYYCALWYSNRWVFGGGTKVEIKRTVAAPSVFIFPPSDEQLKSGTASVVCLLNNFYPREAKVQWKVDNALQSGNSQESVTEQDSKDSTYSLSSTLTLSKADYEKHKVYACEVTHQGLSSPVTKSFNRGEC
notes: human IgG1, kappa; also called Kappa Lc8
In the case of B8, the “Bmax (MFI)” value [1] is reported as 1250 MFI, the Kd [1] is reported as 300 pM and the Kd [3] is reported as 493 pM. It also gave a koff [3] of 0.000267 s⁻¹, a kon [3] of 541000 M⁻¹ s⁻¹ and a Kd [4] of 338 pM. It also gave a koff [4] of 0.000311 s⁻¹ and a kon [4] of 920000 M⁻¹ s⁻¹.

B9: 2037-B10-Lc5 (antibody)
heavy: not shown
light: B8 light with L68G, G71T, K72D, A73F
notes: human IgG1, kappa; also called Kappa Lc5; Parent HC + Kappa Lc5
B9 was tested, and the “Bmax (MFI)” value [1] was 1200 MFI, the Kd [1] was 40700 pM and the “HUT78 Bmax” value [2] was 1850. The Kd [2] was 47000 pM, the Kd [3] was 12200 pM and the koff [3] was 0.000464 s⁻¹. For the same binder, the kon [3] was 38200 M⁻¹ s⁻¹, the Kd [4] was 8280 pM and the koff [4] was 0.000478 s⁻¹. For the same binder, the kon [4] was 57700 M⁻¹ s⁻¹.

B10: 2037-B10-Lc7 (antibody)
heavy: not shown
light: B8 light with L38Y, Q44K, R47K, G48L
notes: human IgG1, kappa; also called Kappa Lc7
B10 was tested, and the “Bmax (MFI)” value [1] was 737 MFI, the Kd [1] was 338000 pM and the binding result [3] was “no binding”. B10: no binding [4].

B11: 2037-B10-Lc9 (antibody, V domains shown)
VH: not shown
VL: DTQVTQSPSLSASVGDRVTITCGSSTGAVTSGYYPNWLQQKPGQAPRGLIGGTKFLAPGVPSRFSGSLLGGKAALTISSLQPEDFATYYCALWYSNRWVFGGGTKVEIKR
notes: human IgG1, kappa; also called Kappa Lc9
With B11 the “Bmax (MFI)” value [1] was 1230 MFI, the Kd [1] was 400 pM and the Kd [3] was 511 pM. It also gave a koff [3] of 0.000297 s⁻¹, a kon [3] of 580000 M⁻¹ s⁻¹ and a Kd [4] of 329 pM. The koff [4] was 0.00034 s⁻¹ and the kon [4] was 1.03e+06 M⁻¹ s⁻¹.

B12: 2037-B10-Lc2 (antibody)
heavy: not shown
light: B8 light with L38Y, Q44K, R47K, G48L, L68G, G71T, K72D, A73F
notes: human IgG1, kappa; also called Kappa Lc2
In the case of B12, the “Bmax (MFI)” value [1] is reported as 63 MFI, the Kd [1] is reported as 24000 pM and the binding result [3] is reported as “no binding”. B12: no binding [4].

B13: 2037-B10-Lc10 (antibody, V domains shown)
VH: not shown
VL: B11 VL with T87E
notes: human IgG1, kappa; also called Kappa Lc10
In the case of B13, the “Bmax (MFI)” value [1] is reported as 1240 MFI, the Kd [1] is reported as 600 pM and the Kd [3] is reported as 464 pM. For the same binder, the koff [3] was 0.000314 s⁻¹, the kon [3] was 677000 M⁻¹ s⁻¹ and the Kd [4] was 371 pM. It also gave a koff [4] of 0.000404 s⁻¹ and a kon [4] of 1.09e+06 M⁻¹ s⁻¹.

B14: SRP2037-B10 (antibody, V domains shown)
VH: not shown
VL: QTVVTQEPSLTVSPGGTVTLTCGSSTGAVTSGYYPNWLQQKPGQAPRGLIGGTKFLAPGTPARFSGSLLGGKAALTLSGVQPEDEAEYYCALWYSNRWVFGGGTQLTVTG
notes: human IgG1, lambda; also called 2037-B10 WT; 2037-B10 wt LC (lambda)
B14 showed a Kd [8] of 465 pM, a koff [8] of 0.000222 s⁻¹ and a kon [8] of 478000 M⁻¹ s⁻¹. The “Bmax (MFI)” value [1] was 1030 MFI, the Kd [1] was 400 pM and the “Bmax (MFI)” value [9] was 1040 MFI. The Kd [9] was 150 pM, the “HUT78 Bmax” value [2] was 1890 and the Kd [2] was 2320 pM. The Kd [3] was 596 pM, the koff [3] was 0.000306 s⁻¹ and the kon [3] was 514000 M⁻¹ s⁻¹. For the same binder, the Kd [4] was 416 pM, the koff [4] was 0.000368 s⁻¹ and the kon [4] was 884000 M⁻¹ s⁻¹. It also gave a Kd [5] of 418 pM, a koff [5] of 0.000344 s⁻¹ and a kon [5] of 824000 M⁻¹ s⁻¹. For the same binder, the Kd [6] was 2200 pM, the koff [6] was 0.000564 s⁻¹ and the kon [6] was 256000 M⁻¹ s⁻¹.

B15: SMP1913-G05 (antibody, human IgG1, lambda, V domains shown)
VH: EVQLVESGGGLVQPGRSLRLSCTASGFTFNKYAMNWFRQAPGKGLEWVARIRSKYNNYATYYADSVKDRFTISRDDSKSIAYLQMNSLKTEDTAVYYCVRHGNFGNSYISYWAYWGQGTLVTVSS
VL: not shown
notes: human IgG1, lambda; also called hSP34-Hc3 + SP34-Lc
In the case of B15, the “FACS S/N (Jurkat/Jurkat RT3-T3.5 binding)” value [7] is reported as 0.8.

B16: SMP1913-G08 (antibody, human IgG1, lambda, V domains shown)
VH: B15 VH
VL: B14 VL with L38F
notes: human IgG1, lambda; also called hSP34-Hc3 + SP34-Lc3
For B16, the “FACS S/N (Jurkat/Jurkat RT3-T3.5 binding)” value [7] was 1.

B17: SMP1913-F04 (antibody, V domains shown)
VH: not shown
VL: B14 VL with L38F
notes: human IgG1, lambda; also called SP34-Hc + SP34-Lc3
B17 was tested, and the “FACS S/N (Jurkat/Jurkat RT3-T3.5 binding)” value [7] was 5.1.

B18: SMP1913-H02 (antibody, V domains shown)
VH: not shown
VL: B14 VL with L38F
notes: human IgG1, lambda; also called hSP34-Hc4 + SP34-Lc3
In the case of B18, the “FACS S/N (Jurkat/Jurkat RT3-T3.5 binding)” value [7] is reported as 1.
